Source: patent US20050048527, “Endonuclease-substrate complexes” (Third Wave Technologies, Inc., published 2005)

T1: Mja FEN1 (Methanococcus jannaschii, UniProt Q58839 SEQ:1-326)
T1 sequence: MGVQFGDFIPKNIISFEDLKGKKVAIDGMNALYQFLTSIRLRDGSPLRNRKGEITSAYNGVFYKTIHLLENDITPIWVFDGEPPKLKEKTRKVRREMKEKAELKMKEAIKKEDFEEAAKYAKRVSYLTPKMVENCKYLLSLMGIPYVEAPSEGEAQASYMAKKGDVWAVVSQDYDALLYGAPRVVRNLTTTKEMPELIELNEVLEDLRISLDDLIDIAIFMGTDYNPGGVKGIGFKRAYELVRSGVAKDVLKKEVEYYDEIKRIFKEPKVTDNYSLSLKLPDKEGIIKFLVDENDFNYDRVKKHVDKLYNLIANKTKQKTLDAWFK

T2: Pfu2M FEN1 (Pyrococcus furiosus, UniProt O93634 SEQ:1-340)
T2 chain: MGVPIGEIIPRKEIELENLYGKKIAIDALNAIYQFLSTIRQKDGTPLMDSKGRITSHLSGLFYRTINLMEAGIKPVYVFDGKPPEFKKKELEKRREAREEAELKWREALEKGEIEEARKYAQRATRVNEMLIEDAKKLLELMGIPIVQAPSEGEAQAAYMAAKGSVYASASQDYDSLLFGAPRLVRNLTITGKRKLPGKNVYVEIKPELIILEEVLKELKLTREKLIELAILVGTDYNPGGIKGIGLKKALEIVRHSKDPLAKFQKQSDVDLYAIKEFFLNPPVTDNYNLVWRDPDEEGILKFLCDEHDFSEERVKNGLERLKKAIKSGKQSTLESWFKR

T3: Pfu4M FEN1 (Pyrococcus furiosus, UniProt O93634 SEQ:1-340)
T3 chain: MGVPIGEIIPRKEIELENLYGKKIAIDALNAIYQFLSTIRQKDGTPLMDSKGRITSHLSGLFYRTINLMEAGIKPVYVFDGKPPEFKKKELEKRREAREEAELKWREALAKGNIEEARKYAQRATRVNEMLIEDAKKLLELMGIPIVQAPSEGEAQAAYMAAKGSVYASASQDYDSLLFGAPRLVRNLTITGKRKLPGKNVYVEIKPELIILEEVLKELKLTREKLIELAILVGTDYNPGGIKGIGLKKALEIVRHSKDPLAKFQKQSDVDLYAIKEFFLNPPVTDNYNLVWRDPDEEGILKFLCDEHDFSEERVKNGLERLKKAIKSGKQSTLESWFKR

T4: Pho1M FEN1 (Pyrococcus horikoshii, UniProt O50123 SEQ:1-343)
T4 chain: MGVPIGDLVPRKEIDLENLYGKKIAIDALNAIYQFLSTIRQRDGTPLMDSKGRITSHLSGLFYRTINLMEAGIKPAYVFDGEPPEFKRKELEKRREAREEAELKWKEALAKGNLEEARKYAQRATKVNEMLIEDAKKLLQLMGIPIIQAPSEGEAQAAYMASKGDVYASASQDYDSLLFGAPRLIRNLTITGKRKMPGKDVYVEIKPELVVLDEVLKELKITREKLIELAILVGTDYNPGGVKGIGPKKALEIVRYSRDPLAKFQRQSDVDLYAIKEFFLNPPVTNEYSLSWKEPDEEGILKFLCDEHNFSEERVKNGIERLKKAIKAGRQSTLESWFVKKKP

T5: Pho FEN1 (Pyrococcus horikoshii, UniProt O50123 SEQ:1-343)
T5 sequence: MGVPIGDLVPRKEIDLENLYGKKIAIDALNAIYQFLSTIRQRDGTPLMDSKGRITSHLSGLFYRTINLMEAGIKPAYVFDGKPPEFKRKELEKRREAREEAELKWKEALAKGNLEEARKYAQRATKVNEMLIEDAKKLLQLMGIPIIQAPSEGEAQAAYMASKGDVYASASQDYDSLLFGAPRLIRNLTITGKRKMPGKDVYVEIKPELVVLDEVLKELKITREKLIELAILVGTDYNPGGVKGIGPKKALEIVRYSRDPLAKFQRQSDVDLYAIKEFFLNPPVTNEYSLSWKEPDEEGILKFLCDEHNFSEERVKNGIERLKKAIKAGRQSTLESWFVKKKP

B1: INVADER substrate 594-12-1/203-91-1 (structured_DNA)
DNA 1: TTTTTCACGGCAGTTGGTGCGCCTCGGAACGAGGCGCACA
DNA 2: TTTTCAACTGCCGTGA
B2: X-structure 203-81-2/203-91-2 (structured_DNA)
DNA 1: TTTTCAACTGCTTAGAGAATCTAAGCAGTTGGTGCGCCTCGTTAA
DNA 2: AACGAGGCGCACATT
modifications: 3'-NH2 on first strand

Experiments:
Assay in all cases: cleavage_in_vitro; rate vs Pfu FEN1
Mja FEN1 = target: T1, Mja FEN1
Experimental: (§1) For the evaluation of chimeric enzymes, standard tests were performed to measure the performance and specificity of the enzymes. […] 10 μl reactions are run at 59 C for between 5 to 60 minutes depending on the enzyme. Reactions are stopped by the addition of 10 μl of 95% formamide, 0.02% methyl violet. 1 μl of the mixture is run on a denaturing 20% acrylamide gel and electrophoresed for 15 minutes or until good separation is achieved between cleaved and uncleaved probe. The gels are scanned using an FMBIO fluorescent gel scanner and the bands are quantified with FMBIOAnalysis software. Cleavage rates are determined from the percent probe cleaved. Cleavage rate for the INVADER substrate is defined as the number of probe molecules cleaved per target molecule per minute. In Table 5, below, the cleavage rates for the mutant enzymes are compared to the cleavage rates for unmodified Pfu FEN1 enzyme on the INVADER assay and X-structure substrates.
(§2) The X-structure substrate is used to determine the amount of background cleavage an enzyme will carry out in an INVADER reaction. It mimics the structure created by uncut primary probe and secondary FRET cassette in the INVADER squared reaction. […] 10 μl reactions are run at 59 C for between 3 to 30 minutes depending on the enzyme. Reactions are stopped by the addition of 10 μl of 95% formamide, 0.02% methyl violet. 1 μl of the mixture is run on a denaturing 20% acrylamide gel and electophoresed for 15 minutes or until good separation is achieved between cleaved and uncleaved probe. The gels are scanned using an FMBIO fluorescent gel scanner and the bands are quantified with FMBIOAnalysis software. Cleavage rates are determined from the percent probe cleaved.

Pfu2M FEN1 = target: T2, Pfu2M FEN1
Experimental: as §1, §2

Pfu4M FEN1 = target: T3, Pfu4M FEN1
Experimental: as §1, §2

Pho1M FEN1 = target: T4, Pho1M FEN1
Experimental: as §1, §2

Pho FEN1 = target: T5, Pho FEN1; conditions: label: 5'-TET; X-structure
Experimental: as §1, §2

[1] = label: 5'-biotin target, 5'-TET probe, hairpin target-INVADER with overlapping probe flap

Row | Binder | cleavage rate (Mja FEN1; [1]) | cleavage rate (Pfu2M FEN1; [1]) | cleavage rate (Pfu4M FEN1; [1]) | cleavage rate (Pho1M FEN1; [1]) | cleavage rate (Mja FEN1; label: 5'-TET, X-structure) | cleavage rate (Pho FEN1) | cleavage rate (Pfu2M FEN1; label: 5'-TET, X-structure) | cleavage rate (Pfu4M FEN1; label: 5'-TET, X-structure) | cleavage rate (Pho1M FEN1; label: 5'-TET, X-structure)
1 | B1 | 1.9 | 1.4 | 2.2 | 1.1 |  |  |  |  | 
2 | B2 |  |  |  |  | 203 | 120 | 3 | 62 | 18
